This assay deals with ef1a2_human EEF1A2 (UniProt Q05639).

One substance from IntAct's records for PubMed 19559761 can be followed below.

UniProt Q05639, sequence (Q05639 whole entry): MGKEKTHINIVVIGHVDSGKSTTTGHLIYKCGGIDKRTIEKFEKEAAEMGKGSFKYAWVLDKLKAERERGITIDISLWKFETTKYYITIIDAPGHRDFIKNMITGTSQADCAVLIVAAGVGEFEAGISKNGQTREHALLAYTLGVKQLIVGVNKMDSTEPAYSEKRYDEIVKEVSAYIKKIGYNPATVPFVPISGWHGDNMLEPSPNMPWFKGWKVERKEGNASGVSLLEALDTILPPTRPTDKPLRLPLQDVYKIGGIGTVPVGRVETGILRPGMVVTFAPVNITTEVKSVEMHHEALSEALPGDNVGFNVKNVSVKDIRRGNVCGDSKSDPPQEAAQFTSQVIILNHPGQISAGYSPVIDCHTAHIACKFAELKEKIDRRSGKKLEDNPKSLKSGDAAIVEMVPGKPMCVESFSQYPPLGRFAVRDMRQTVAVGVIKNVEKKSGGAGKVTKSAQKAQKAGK

As for “Leucine-rich repeat serine/threonine-protein kinase 2 (Homo sapiens), Q5S007 G2019S”, the “effect of a mutation on the interaction” value is given as “increasing interaction”.
